# Test results: the Immune Epitope Database (IEDB)
# Tests used:
# HLA-A*02:12 = assay: IEDB peptide-MHC binding, purified MHC/direct/fluorescence; filed as Kd, often an IC50 or EC50 that approximates it; ≥ and ≤ were set here for values at or beyond the usual limits of such assays; settings: source organism: dengue virus type 1
# HLA-C*08:02 = assay: as above
# HLA-A*02:19 = assay: as above; settings: source organism: dengue virus type 1
# HLA-A*02:11 = assay: as above; settings: source organism: dengue virus type 1
# HLA-A*02:17 = assay: IEDB peptide-MHC binding, purified MHC/competitive/radioactivity; filed as Kd, often an IC50 or EC50 that approximates it; ≥ and ≤ were set here for values at or beyond the usual limits of such assays; settings: source organism: Dengue virus 1 Singapore/S275/1990
# HLA-A*24:02 = assay: as above; settings: source organism: Dengue virus 1 Brazil/97-11/1997
# HLA-A*02:03 = assay: as above; settings: source organism: Dengue virus 1 Brazil/97-11/1997
# HLA-A*80:01 = assay: IEDB peptide-MHC binding, purified MHC/direct/fluorescence; filed as Kd, often an IC50 or EC50 that approximates it; ≥ and ≤ were set here for values at or beyond the usual limits of such assays
# HLA-A*01:01 [1] = assay: as above
# HLA-C*12:03 = assay: as above
# HLA-C*14:02 = assay: as above
# HLA-C*15:02 = assay: as above
# HLA-C*06:02 = assay: as above
# HLA-B*48:01 = assay: IEDB peptide-MHC binding, purified MHC/competitive/fluorescence; filed as Kd, often an IC50 or EC50 that approximates it; ≥ and ≤ were set here for values at or beyond the usual limits of such assays
# HLA-A*26:02 = assay: IEDB peptide-MHC binding, purified MHC/direct/fluorescence; filed as Kd, often an IC50 or EC50 that approximates it; ≥ and ≤ were set here for values at or beyond the usual limits of such assays; settings: source organism: Geobacillus sp. WCH70
# HLA-B*07:02 [2] = assay: IEDB peptide-MHC binding, purified MHC/competitive/fluorescence; filed as Kd, often an IC50 or EC50 that approximates it; ≥ and ≤ were set here for values at or beyond the usual limits of such assays
# HLA-B*08:02 = assay: IEDB peptide-MHC binding, purified MHC/direct/fluorescence; filed as Kd, often an IC50 or EC50 that approximates it; ≥ and ≤ were set here for values at or beyond the usual limits of such assays; settings: source organism: Bacillus anthracis str. Sterne
# HLA-B*08:01 = assay: as above; settings: source organism: Bacillus anthracis str. Sterne
# HLA-B*27:20 = assay: IEDB peptide-MHC binding, purified MHC/competitive/fluorescence; filed as Kd, often an IC50 or EC50 that approximates it; ≥ and ≤ were set here for values at or beyond the usual limits of such assays
# HLA-B*83:01 = assay: as above
# HLA-B*45:06 = assay: as above
# HLA-B*15:42 = assay: as above
# HLA-A*26:03 = assay: IEDB peptide-MHC binding, purified MHC/direct/fluorescence; filed as Kd, often an IC50 or EC50 that approximates it; ≥ and ≤ were set here for values at or beyond the usual limits of such assays; settings: source organism: Cryptosporidium parvum Iowa II
# HLA-A*32:15 = assay: IEDB peptide-MHC binding, purified MHC/competitive/fluorescence; filed as Kd, often an IC50 or EC50 that approximates it; ≥ and ≤ were set here for values at or beyond the usual limits of such assays; settings: source organism: Toxoplasma gondii
# HLA-A*03:01 = assay: as above; settings: source organism: Toxoplasma gondii
# HLA-A*68:23 = assay: as above; settings: source organism: Toxoplasma gondii
# HLA-A*01:01 [3] = assay: IEDB peptide-MHC binding, purified MHC/competitive/fluorescence; ≥ and ≤ were set here for values at or beyond the usual limits of such assays
# HLA-B*07:02 [4] = assay: as above
# HLA-B*15:01 = assay: IEDB peptide-MHC binding, purified MHC/competitive/fluorescence; filed as Kd, often an IC50 or EC50 that approximates it; ≥ and ≤ were set here for values at or beyond the usual limits of such assays; settings: source organism: Shigella flexneri 2a str. 301
# HLA-B*35:01 = assay: as above; settings: source organism: Shigella flexneri 2a str. 301
# HLA-B*57:01 = assay: IEDB peptide-MHC binding, purified MHC/competitive/radioactivity; filed as Kd, often an IC50 or EC50 that approximates it; ≥ and ≤ were set here for values at or beyond the usual limits of such assays; settings: source organism: Dengue virus 1 Brazil/97-11/1997
# HLA-C*03:03 = assay: IEDB peptide-MHC binding, purified MHC/direct/fluorescence; filed as Kd, often an IC50 or EC50 that approximates it; ≥ and ≤ were set here for values at or beyond the usual limits of such assays
# HLA-C*07:02 = assay: as above; settings: source organism: Mycobacterium tuberculosis str. Haarlem
# HLA-B*40:01 = assay: as above; settings: source organism: Homo sapiens
# HLA-B*27:05 = assay: as above; settings: source organism: Homo sapiens
# [5] = source organism: dengue virus type 1
# [6] = source organism: West Nile virus
# [7] = source organism: Listeria monocytogenes EGD-e
# [8] = source organism: Bacillus anthracis str. A2012
# [9] = source organism: Toxoplasma gondii
# [10] = source organism: Zaire ebolavirus
# [11] = source organism: Cryptosporidium parvum Iowa II
# [12] = source organism: Mycobacterium tuberculosis str. Haarlem
# [13] = source organism: Vibrio parahaemolyticus
# [14] = source organism: Pan troglodytes
sequence,measurement,setting,value
YMPSVVETL,Kd,HLA-A*02:12,9 nM
same,Kd,HLA-C*08:02; [5],≥ 20000 nM
same,Kd,HLA-A*02:19,36 nM
same,Kd,HLA-A*02:11,≤ 1 nM
same,Kd,HLA-A*02:17,14.6 nM
same,Kd,HLA-A*24:02,1010 nM
same,Kd,HLA-A*02:03,15 nM
MSPHRVPNY,Kd,HLA-A*80:01; [6],≥ 20000 nM
same,Kd,HLA-A*01:01 [1]; [6],≥ 20000 nM
RMMGKTNPL,Kd,HLA-C*12:03; [7],156 nM
same,Kd,HLA-C*14:02; [7],≤ 1 nM
same,Kd,HLA-C*15:02; [7],16 nM
same,Kd,HLA-C*06:02; [7],≥ 20000 nM
same,Kd,HLA-B*48:01; [7],97.4 nM
FTWPWMKLF,Kd,HLA-A*26:02,469 nM
MPRQKIIGPL,Kd,HLA-B*07:02 [2]; source organism: Influenza A virus (A/Swine/Colorado/23619/99(H3N2)),6.6 nM
YMKERFTVL,Kd,HLA-B*08:02,282 nM
same,Kd,HLA-C*14:02; [8],173 nM
same,Kd,HLA-B*08:01,15 nM
same,Kd,HLA-C*15:02; [8],1500 nM
same,Kd,HLA-C*06:02; [8],149 nM
same,Kd,HLA-B*27:20; [8],22.6 nM
same,Kd,HLA-B*83:01; [8],≥ 5000 nM
same,Kd,HLA-B*45:06; [8],≥ 5000 nM
same,Kd,HLA-B*15:42; [8],≥ 5000 nM
ETRYSWAIL,Kd,HLA-A*26:03,454 nM
MTMLIKAFK,Kd,HLA-B*83:01; [9],≥ 5000 nM
same,Kd,HLA-B*45:06; [9],≥ 5000 nM
same,Kd,HLA-A*32:15,194 nM
same,Kd,HLA-A*03:01,7.7 nM
same,Kd,HLA-B*15:42; [9],≥ 5000 nM
same,Kd,HLA-A*68:23,4.5 nM
RGDLETLGY,IC50,HLA-A*01:01 [3]; source organism: Vaccinia virus WR,9250 nM
GPCPGDYAF,IC50,HLA-B*07:02 [4]; source organism: Sudan ebolavirus,≥ 722000 nM
KPVGWAMSF,Kd,HLA-B*15:01,4000 nM
same,Kd,HLA-B*35:01,0.4 nM
same,Kd,HLA-B*07:02 [2]; source organism: Shigella flexneri 2a str. 301,11.9 nM
ESDPEGALW,Kd,HLA-A*80:01; [5],≥ 20000 nM
same,Kd,HLA-B*57:01,391 nM
PDDGSYGEY,IC50,HLA-A*01:01 [3]; [10],≥ 277000 nM
WMYNIQPYL,Kd,HLA-C*12:03; [11],454 nM
same,Kd,HLA-C*03:03; [11],83 nM
same,Kd,HLA-B*48:01; [11],34.7 nM
YVYPDNLPV,Kd,HLA-C*07:02,2170 nM
same,Kd,HLA-C*08:02; [12],78 nM
same,Kd,HLA-C*03:03; [12],2 nM
APDGIRGFP,IC50,HLA-B*07:02 [4]; [10],23400 nM
TSDGKEYTY,IC50,HLA-A*01:01 [3]; [10],3450 nM
MTPGRGLSK,Kd,HLA-A*80:01; [13],≥ 20000 nM
same,Kd,HLA-A*01:01 [1]; [13],≥ 20000 nM
RRHWGGNVL,Kd,HLA-B*40:01,≥ 43000 nM
same,Kd,HLA-B*27:05,2300 nM
same,Kd,HLA-B*27:20; [14],0.2 nM
same,Kd,HLA-B*83:01; [14],≥ 5000 nM
same,Kd,HLA-B*45:06; [14],≥ 5000 nM
same,Kd,HLA-B*15:42; [14],≥ 5000 nM
